This is an account of results in article PMC5454376 (2017).

B1: Human His-Gαi3 WT [human] / Fluorescein-labelled GIV peptide (residues 1,671–1,701) [modified: 5,6-carboxyfluorescein coupled to the resin-bound peptide after chain elongation; 5,6-carboxyfluorescein coupled to the resin-bound peptide … (parent complex)
chain 1: MGCTLSAEDKAAVERSKMIDRNLREDGEKAAKEVKLLLLGAGESGKSTIVKQMKIIHEDGYSEDECKQYKVVVYSNTIQSIIAIIRAMGRLKIDFGEAARADDARQLFVLAGSAEEGVMTPELAGVIKRLWRDGGVQACFSRSREYQLNDSASYYLNDLDRISQSNYIPTQQDVLRTRVKTTGIVETHFTFKDLYFKMFDVGGQRSERKKWIHCFEGVTAIIFCVALSDYDLVLAEDEEMNRMHESMKLFDSICNNKWFTETSIILFLNKKDLFEEKIKRSPLTICYPEYTGSNTYEEAAAYIQCQFEDLNRRKDTKEIYTHFTCATDTKNVQFVFDAVTDVIIKNNLKECGLY
chain 2: KTGSPGSEVVTLQQFLEESNKLTSVQIKSSS
B2: Human His-Gαi3 WT [human] / Fluorescein-labelled RGS12 GoLoco peptide (residues 1,185–1,221) [modified: 5,6-carboxyfluorescein coupled to the resin-bound peptide after chain elongation; 5,6-carboxyfluorescein coupled to the resin-bound … (parent complex)
chain 1: B1 chain 1
chain 2: DEAEEFFELISKAQSNRADDQRGLLRKEDLVLPEFLR

The variants in one test derive from B1. The test can be described thus: fluorescence polarisation.
As for chain 1 MGCTLSAEDKAAVERSKMIDRNLREDGEKAAKEVKLLLLGAGESGKSTIVKQMKIIHEDGYSEDECKQYKVVVYSNTIQSIIAIIRAMGRLKIDFGEAARADDARQLFVLAGSAEEGVMTPELAGVIKRLWRDGGVQACFSRSREYQLNDSASYYLNDLDRISQSNYIPTQQDVLRTRVKTTGIVETHFTFKDLYFKMFDVGGQRSERKKWIHCFEGVTAIIFCVALSDYDLVLAEDEEMNRMHESMKLFDSICNNKWFTETSIILFLNKKDLFEEKIKRSPLTICYPEYTGSNTYEEAAAYIQCQFEDLNRRKDTWEIYTHFTCATDTKNVQFVFDAVTDVIIKNNLKECGLY [chain 1 K317W], the Kd turned out to be 510 nM.

As to chain 1 MGCTLSAEDKAAVERSKMIDRNLREDGEKAAKEVKLLLLGAGESGKSTIVKQMKIIHEDGYSEDECKQYKVVVYSNTIQSIIAIIRAMGRLKIDFGEAARADDARQLFVLAGSAEEGVMTPELAGVIKRLWRDGGVQACFSRSREYQLNDSASYYLNDLDRISQSNYIPTQQDVLRTRVKTTGIVETHFTFKDLYFKMFDVGGQRSERKKWIHCFEGVTAIIFCVALSDYDLVLAEDEEMNRMHESMKLFDSICNNKWFTETSIILFLNKKDLFEEKIKRSPLTICYPEYTGSNTYEEAAAYIQCQFEDLNRRKDTAEIYTHFTCATDTKNVQFVFDAVTDVIIKNNLKECGLY [chain 1 K317A], the Kd came out at 590 nM.

Regarding chain 1 MGCTLSAEDKAAVERSKMIDRNLREDGEKAAKEVKLLLLGAGESGKSTIVKQMKIIHEDGYSEDECKQYKVVVYSNTIQSIIAIIRAMGRLKIDFGEAARADDARQLFVLAGSAEEGVMTPELAGVIKRLWRDGGVQACFSRSREYQLNDSASYYLNDLDRISQSNYIPTQQDVLRTRVKTTGIVETHFTFKDLYFKMFDVGGQRSERKKWIHCFEGVTAIIFCVALSDYDLVLAEDEEMNRMHESMKLFDSICNNKWFTETSIILFLNKKDLFEEKIKRSPLTICYPEYTGSNTYEEAAAYIQCQFEDLNRAKDTKEIYTHFTCATDTKNVQFVFDAVTDVIIKNNLKECGLY [chain 1 R313A], the Kd was found to be 800 nM.

A further test covers variants of B1. The test is described as follows: fluorescence polarisation. The source holds these as a separate data set.
As for chain 1 MGCTLSAEDKAAVERSKMIDRNLREDGEKAAKEVKLLLLGAGESGKSTIVKQMKIIHEDGYSEDECKQYKVVVYSNTIQSIIAIIRAMGRLKIDFGEAARADDARQLFVLAGSAEEGVMTPELAGVIKRLWRDGGVQACFSRSREYQLNDSASYYLNDLDRISQSNYIPTQQDVLRTRVKTTGAVETHFTFKDLYFKMFDVGGQRSERKKWIHCFEGVTAIIFCVALSDYDLVLAEDEEMNRMHESMKLFDSICNNKWFTETSIILFLNKKDLFEEKIKRSPLTICYPEYTGSNTYEEAAAYIQCQFEDLNRRKDTKEIYTHFTCATDTKNVQFVFDAVTDVIIKNNLKECGLY [chain 1 I184A], the Kd was determined as 1910 nM.

Variants of B2 are the subject of another test. The test is described as follows: fluorescence polarisation.
As for chain 1 MGCTLSAEDKAAVERSKMIDRNLREDGEKAAKEVKLLLLGAGESGKSTIVKQMKIIHEDGYSEDECKQYKVVVYSNTIQSIIAIIRAMGRLKIDFGEAARADDARQLFVLAGSAEEGVMTPELAGVIKRLWRDGGVQACFSRSREYQLNDSASYYLNDLDRISQSNYIPTQQDVLRTRVKTTGIVETHFTFKDLYFKMFDVGGQRSERKKWIHCAEGVTAIIFCVALSDYDLVLAEDEEMNRMHESMKLFDSICNNKWFTETSIILFLNKKDLFEEKIKRSPLTICYPEYTGSNTYEEAAAYIQCQFEDLNRRKDTKEIYTHFTCATDTKNVQFVFDAVTDVIIKNNLKECGLY [chain 1 F215A], the Kd came out at 551 nM.

With chain 1 MGCTLSAEDKAAVERSKMIDRNLREDGEKAAKEVKLLLLGAGESGKSTIVKQMKIIHEDGYSEDECKQYKVVVYSNTIQSIIAIIRAMGRLKIDFGEAARADDARQLFVLAGSAEEGVMTPELAGVIKRLWRDGGVQACFSRSREYQLNDSASYYLNDLDRISQSNYIPTQQDVLRTRVKTTGIVETHFTFKDLYFKMFDVGGQRSERKKWIHCFEGVTAIIFCVALSDYDLVLAEDEEMNRMHESMKLFDSICNNKFFTETSIILFLNKKDLFEEKIKRSPLTICYPEYTGSNTYEEAAAYIQCQFEDLNRRKDTKEIYTHFTCATDTKNVQFVFDAVTDVIIKNNLKECGLY [chain 1 W258F], the Kd stood at 63 nM.

As for chain 1 MGCTLSAEDKAAVERSKMIDRNLREDGEKAAKEVKALLLGAGESGKSTIVKQMKIIHEDGYSEDECKQYKVVVYSNTIQSIIAIIRAMGRLKIDFGEAARADDARQLFVLAGSAEEGVMTPELAGVIKRLWRDGGVQACFSRSREYQLNDSASYYLNDLDRISQSNYIPTQQDVLRTRVKTTGIVETHFTFKDLYFKMFDVGGQRSERKKWIHCFEGVTAIIFCVALSDYDLVLAEDEEMNRMHESMKLFDSICNNKWFTETSIILFLNKKDLFEEKIKRSPLTICYPEYTGSNTYEEAAAYIQCQFEDLNRRKDTKEIYTHFTCATDTKNVQFVFDAVTDVIIKNNLKECGLY [chain 1 L36A], the Kd is 119 nM.

For the variant chain 1 MGCTLSAEDKAAVERSKMIDRNLREDGEKAAKEVKLALLGAGESGKSTIVKQMKIIHEDGYSEDECKQYKVVVYSNTIQSIIAIIRAMGRLKIDFGEAARADDARQLFVLAGSAEEGVMTPELAGVIKRLWRDGGVQACFSRSREYQLNDSASYYLNDLDRISQSNYIPTQQDVLRTRVKTTGIVETHFTFKDLYFKMFDVGGQRSERKKWIHCFEGVTAIIFCVALSDYDLVLAEDEEMNRMHESMKLFDSICNNKWFTETSIILFLNKKDLFEEKIKRSPLTICYPEYTGSNTYEEAAAYIQCQFEDLNRRKDTKEIYTHFTCATDTKNVQFVFDAVTDVIIKNNLKECGLY [chain 1 L37A], the Kd came out at 80 nM.

As to chain 1 MGCTLSAEDKAAVERSKMIDRNLREDGEKAAKEVKLLLLGAGESGKSTIVKQMKIIHEDGYSEDECKQYKVVVYSNTIQSIIAIIRAMGRLKIDFGEAARADDARQLFVLAGSAEEGVMTPELAGVIKRLWRDGGVQACFSRSREYQLNDSASYYLNDLDRISQSNYIPTQQDVLRTRVKTTGIVETHFTFKDLYFKMFDVGGQRSERKKWIHCFEGATAIIFCVALSDYDLVLAEDEEMNRMHESMKLFDSICNNKWFTETSIILFLNKKDLFEEKIKRSPLTICYPEYTGSNTYEEAAAYIQCQFEDLNRRKDTKEIYTHFTCATDTKNVQFVFDAVTDVIIKNNLKECGLY [chain 1 V218A], the Kd worked out at 104 nM.

As to chain 1 MGCTLSAEDKAAVERSKMIDRNLREDGEKAAKEVKLLLLGAGESGKSTIVKQMKIIHEDGYSEDECKQYKVVVYSNTIQSIIAIIRAMGRLKIDFGEAARADDARQLFVLAGSAEEGVMTPELAGVIKRLWRDGGVQACFSRSREYQLNDSASYYLNDLDRISQSNYIPTQQDVLRTRVKTTGIVETHFTFKDLYFKMFDVGGQRSERKKWIHCFEGVTAIIFCVALSDYDLVLAEDEEMNRMHESMKLFDSICNNAWFTETSIILFLNKKDLFEEKIKRSPLTICYPEYTGSNTYEEAAAYIQCQFEDLNRRKDTKEIYTHFTCATDTKNVQFVFDAVTDVIIKNNLKECGLY [chain 1 K257A], the Kd was 86 nM.

chain 1 MGCTLSAEDKAAVERSKMIDRNLREDGEKAAKEVKLLLAGAGESGKSTIVKQMKIIHEDGYSEDECKQYKVVVYSNTIQSIIAIIRAMGRLKIDFGEAARADDARQLFVLAGSAEEGVMTPELAGVIKRLWRDGGVQACFSRSREYQLNDSASYYLNDLDRISQSNYIPTQQDVLRTRVKTTGIVETHFTFKDLYFKMFDVGGQRSERKKWIHCFEGVTAIIFCVALSDYDLVLAEDEEMNRMHESMKLFDSICNNKWFTETSIILFLNKKDLFEEKIKRSPLTICYPEYTGSNTYEEAAAYIQCQFEDLNRRKDTKEIYTHFTCATDTKNVQFVFDAVTDVIIKNNLKECGLY [chain 1 L39A]: the Kd came out at 176 nM.

As for chain 1 MGCTLSAEDKAAVERSKMIDRNLREDGEKAAKEVALLLLGAGESGKSTIVKQMKIIHEDGYSEDECKQYKVVVYSNTIQSIIAIIRAMGRLKIDFGEAARADDARQLFVLAGSAEEGVMTPELAGVIKRLWRDGGVQACFSRSREYQLNDSASYYLNDLDRISQSNYIPTQQDVLRTRVKTTGIVETHFTFKDLYFKMFDVGGQRSERKKWIHCFEGVTAIIFCVALSDYDLVLAEDEEMNRMHESMKLFDSICNNKWFTETSIILFLNKKDLFEEKIKRSPLTICYPEYTGSNTYEEAAAYIQCQFEDLNRRKDTKEIYTHFTCATDTKNVQFVFDAVTDVIIKNNLKECGLY [chain 1 K35A], the Kd amounted to 152 nM.

As to chain 1 MGCTLSAEDKAAVERSKMIDRNLREDGEKAAKEVKLLLLGAGESGKSTIVKQMKIIHEDGYSEDECKQYKVVVYSNTIQSIIAIIRAMGRLKIDFGEAARADDARQLFVLAGSAEEGVMTPELAGVIKRLWRDGGVQACFSRSREYQLNDSASYYLNDLDRISQSNYIPTQQDVLRTRVKTTGIVETHFTFKDLYFKMFDVGGQRSERKKWIHCFEGVTAIIFCVALSDYDLVLAEDEEMNRMHESMKLFDSICNEKWFTETSIILFLNKKDLFEEKIKRSPLTICYPEYTGSNTYEEAAAYIQCQFEDLNRRKDTKEIYTHFTCATDTKNVQFVFDAVTDVIIKNNLKECGLY [chain 1 N256E], the Kd turned out to be 314 nM.

As to chain 1 MGCTLSAEDKAAVERSKMIDRNLREDGEKAAKEVKLLLLGAGESGKSTIVKQMKIIHEDGYSEDECKQYKVVVYSNTIQSIIAIIRAMGRLKIDFGEAARADDARQLFVLAGSAEEGVMTPELAGVIKRLWRDGGVQACFSRSREYQLNDSASYYLNDLDRISQSNYIPTQQDVLRTRVKTTGIVETHFTFKDLYFKMFDVGGQRSERKKWIHCFEGVTAIIFCVALSDYDLVLAEDEEMNRMHESMKLFDSICNAKWFTETSIILFLNKKDLFEEKIKRSPLTICYPEYTGSNTYEEAAAYIQCQFEDLNRRKDTKEIYTHFTCATDTKNVQFVFDAVTDVIIKNNLKECGLY [chain 1 N256A], the Kd was 77 nM.

Take chain 1 MGCTLSAEDKAAVERSKMIDRNLREDGEKAAKEVKLLLLGAGESGKSTIVKQMKIIHEDGYSEDECKQYKVVVYSNTIQSIIAIIRAMGRLKIDFGEAARADDARQLFVLAGSAEEGVMTPELAGVIKRLWRDGGVQACFSRSREYQLNDSASYYLNDLDRISQSNYIPTQQDVLRTRVKTTGIVETHFTFKDLYFKMFDVGGQRSERKKWIHCFEGVTAIIFCVALSDYDLVLAEDEEMNRMHESMKLFDSICNNKWATETSIILFLNKKDLFEEKIKRSPLTICYPEYTGSNTYEEAAAYIQCQFEDLNRRKDTKEIYTHFTCATDTKNVQFVFDAVTDVIIKNNLKECGLY [chain 1 F259A]: the equilibrium dissociation constant (Kd) amounted to 187 nM.

In the case of chain 1 MGCTLSAEDKAAVERSKMIDRNLREDGEKAAKEVKLLLLGAGESGKSTIVKQMKIIHEDGYSEDECKQYKVVVYSNTIQSIIAIIRAMGRLKIDFGEAARADDARQLFVLAGSAEEGVMTPELAGVIKRLWRDGGVQACFSRSREYQLNDSASYYLNDLDRISQSNYIPTQQDVLRTRVKTTGAVETHFTFKDLYFKMFDVGGQRSERKKWIHCFEGVTAIIFCVALSDYDLVLAEDEEMNRMHESMKLFDSICNNKWFTETSIILFLNKKDLFEEKIKRSPLTICYPEYTGSNTYEEAAAYIQCQFEDLNRRKDTKEIYTHFTCATDTKNVQFVFDAVTDVIIKNNLKECGLY [chain 1 I184A], the equilibrium dissociation constant (Kd) was 83 nM.
